Results: EP4692118A1
Blank lines part the entries; values can stand above or below the molecule they belong to.

Columns and labels:
[1] = target: ADAM9 on human tumour cells (LS174T, HepG2, Calu-3, Colo205) (human) (UniProt Q13443); assay: flow cytometry on HepG2 cells, 250 nM, negative control
[2] = target: ADAM9 on human tumour cells (LS174T, HepG2, Calu-3, Colo205) (human) (UniProt Q13443); assay: flow cytometry on LS174T cells, 250 nM, negative control
[3] = target: ADAM9 on human tumour cells (LS174T, HepG2, Calu-3, Colo205) (human) (UniProt Q13443); assay: flow cytometry on HepG2 cells, 1000 nM, negative control
[4] = target: ADAM9 on human tumour cells (LS174T, HepG2, Calu-3, Colo205) (human) (UniProt Q13443); assay: flow cytometry on HepG2 cells, 62.5 nM, negative control
[5] = target: ADAM9 on human tumour cells (LS174T, HepG2, Calu-3, Colo205) (human) (UniProt Q13443); assay: flow cytometry on LS174T cells, 1000 nM, negative control
[6] = target: ADAM9 on human tumour cells (LS174T, HepG2, Calu-3, Colo205) (human) (UniProt Q13443); assay: flow cytometry on LS174T cells, 62.5 nM, negative control
[7] = target: ADAM9 on human tumour cells (LS174T, HepG2, Calu-3, Colo205) (human) (UniProt Q13443); assay: flow cytometry on HepG2 cells, 15.625 nM, negative control
[8] = target: ADAM9 on human tumour cells (LS174T, HepG2, Calu-3, Colo205) (human) (UniProt Q13443); assay: flow cytometry on LS174T cells, 15.625 nM, negative control
[9] = target: ADAM9 on human tumour cells (LS174T, HepG2, Calu-3, Colo205) (human) (UniProt Q13443); assay: flow cytometry on HepG2 cells, 0.000238 nM, negative control
[10] = target: ADAM9 on human tumour cells (LS174T, HepG2, Calu-3, Colo205) (human) (UniProt Q13443); assay: flow cytometry on HepG2 cells, 0.000954 nM, negative control
[11] = target: ADAM9 on human tumour cells (LS174T, HepG2, Calu-3, Colo205) (human) (UniProt Q13443); assay: flow cytometry on HepG2 cells, 0.003815 nM, negative control
[12] = target: ADAM9 on human tumour cells (LS174T, HepG2, Calu-3, Colo205) (human) (UniProt Q13443); assay: flow cytometry on HepG2 cells, 0.015259 nM, negative control
[13] = target: ADAM9 on human tumour cells (LS174T, HepG2, Calu-3, Colo205) (human) (UniProt Q13443); assay: flow cytometry on HepG2 cells, 0.061035 nM, negative control
[14] = target: ADAM9 on human tumour cells (LS174T, HepG2, Calu-3, Colo205) (human) (UniProt Q13443); assay: flow cytometry on HepG2 cells, 0.244141 nM, negative control
[15] = target: ADAM9 on human tumour cells (LS174T, HepG2, Calu-3, Colo205) (human) (UniProt Q13443); assay: flow cytometry on HepG2 cells, 0.976563 nM, negative control
[16] = target: ADAM9 on human tumour cells (LS174T, HepG2, Calu-3, Colo205) (human) (UniProt Q13443); assay: flow cytometry on HepG2 cells, 3.906250 nM, negative control
[17] = target: ADAM9 on human tumour cells (LS174T, HepG2, Calu-3, Colo205) (human) (UniProt Q13443); assay: flow cytometry on LS174T cells, 0.000954 nM, negative control
[18] = target: ADAM9 on human tumour cells (LS174T, HepG2, Calu-3, Colo205) (human) (UniProt Q13443); assay: flow cytometry on LS174T cells, 0.003815 nM, negative control
[19] = target: ADAM9 on human tumour cells (LS174T, HepG2, Calu-3, Colo205) (human) (UniProt Q13443); assay: flow cytometry on LS174T cells, 0.015259 nM, negative control
[20] = target: ADAM9 on human tumour cells (LS174T, HepG2, Calu-3, Colo205) (human) (UniProt Q13443); assay: flow cytometry on LS174T cells, 0.061035 nM, negative control
[21] = target: ADAM9 on human tumour cells (LS174T, HepG2, Calu-3, Colo205) (human) (UniProt Q13443); assay: flow cytometry on LS174T cells, 0.244141 nM, negative control
[22] = target: ADAM9 on human tumour cells (LS174T, HepG2, Calu-3, Colo205) (human) (UniProt Q13443); assay: flow cytometry on LS174T cells, 0.976563 nM, negative control
[23] = target: ADAM9 on human tumour cells (LS174T, HepG2, Calu-3, Colo205) (human) (UniProt Q13443); assay: flow cytometry on LS174T cells, 3.906250 nM, negative control
[24] = target: ADAM9 on human tumour cells (LS174T, HepG2, Calu-3, Colo205) (human) (UniProt Q13443); assay: cell-based or functional assay
[25] = target: ADAM9 on human tumour cells (LS174T, HepG2, Calu-3, Colo205) (human) (UniProt Q13443); assay: flow cytometry on LS174T cells, 250 nM
[26] = target: ADAM9 on human tumour cells (LS174T, HepG2, Calu-3, Colo205) (human) (UniProt Q13443); assay: flow cytometry on LS174T cells, 1000 nM
[27] = target: ADAM9 on human tumour cells (LS174T, HepG2, Calu-3, Colo205) (human) (UniProt Q13443); assay: flow cytometry on LS174T cells, 62.5 nM
[28] = target: ADAM9 on human tumour cells (LS174T, HepG2, Calu-3, Colo205) (human) (UniProt Q13443); assay: flow cytometry on LS174T cells, 15.625 nM
[29] = target: ADAM9 on human tumour cells (LS174T, HepG2, Calu-3, Colo205) (human) (UniProt Q13443); assay: flow cytometry on LS174T cells, 0.000954 nM
[30] = target: ADAM9 on human tumour cells (LS174T, HepG2, Calu-3, Colo205) (human) (UniProt Q13443); assay: flow cytometry on LS174T cells, 0.003815 nM
[31] = target: ADAM9 on human tumour cells (LS174T, HepG2, Calu-3, Colo205) (human) (UniProt Q13443); assay: flow cytometry on LS174T cells, 0.015259 nM
[32] = target: ADAM9 on human tumour cells (LS174T, HepG2, Calu-3, Colo205) (human) (UniProt Q13443); assay: flow cytometry on LS174T cells, 0.061035 nM
[33] = target: ADAM9 on human tumour cells (LS174T, HepG2, Calu-3, Colo205) (human) (UniProt Q13443); assay: flow cytometry on LS174T cells, 0.244141 nM
[34] = target: ADAM9 on human tumour cells (LS174T, HepG2, Calu-3, Colo205) (human) (UniProt Q13443); assay: flow cytometry on LS174T cells, 0.976563 nM
[35] = target: ADAM9 on human tumour cells (LS174T, HepG2, Calu-3, Colo205) (human) (UniProt Q13443); assay: flow cytometry on LS174T cells, 3.906250 nM
[36] = target: ADAM9 on human tumour cells (LS174T, HepG2, Calu-3, Colo205) (human) (UniProt Q13443); assay: flow cytometry on HepG2 cells, 250 nM
[37] = target: ADAM9 on human tumour cells (LS174T, HepG2, Calu-3, Colo205) (human) (UniProt Q13443); assay: flow cytometry on HepG2 cells, 1000 nM
[38] = target: ADAM9 on human tumour cells (LS174T, HepG2, Calu-3, Colo205) (human) (UniProt Q13443); assay: flow cytometry on HepG2 cells, 62.5 nM
[39] = target: ADAM9 on human tumour cells (LS174T, HepG2, Calu-3, Colo205) (human) (UniProt Q13443); assay: flow cytometry on HepG2 cells, 15.625 nM
[40] = target: ADAM9 on human tumour cells (LS174T, HepG2, Calu-3, Colo205) (human) (UniProt Q13443); assay: flow cytometry on HepG2 cells, 0.000238 nM
[41] = target: ADAM9 on human tumour cells (LS174T, HepG2, Calu-3, Colo205) (human) (UniProt Q13443); assay: flow cytometry on HepG2 cells, 0.000954 nM
[42] = target: ADAM9 on human tumour cells (LS174T, HepG2, Calu-3, Colo205) (human) (UniProt Q13443); assay: flow cytometry on HepG2 cells, 0.003815 nM
[43] = target: ADAM9 on human tumour cells (LS174T, HepG2, Calu-3, Colo205) (human) (UniProt Q13443); assay: flow cytometry on HepG2 cells, 0.015259 nM
[44] = target: ADAM9 on human tumour cells (LS174T, HepG2, Calu-3, Colo205) (human) (UniProt Q13443); assay: flow cytometry on HepG2 cells, 0.061035 nM
[45] = target: ADAM9 on human tumour cells (LS174T, HepG2, Calu-3, Colo205) (human) (UniProt Q13443); assay: flow cytometry on HepG2 cells, 0.244141 nM
[46] = target: ADAM9 on human tumour cells (LS174T, HepG2, Calu-3, Colo205) (human) (UniProt Q13443); assay: flow cytometry on HepG2 cells, 0.976563 nM
[47] = target: ADAM9 on human tumour cells (LS174T, HepG2, Calu-3, Colo205) (human) (UniProt Q13443); assay: flow cytometry on HepG2 cells, 3.906250 nM

ADAM9 on human tumour cells (LS174T, HepG2, Calu-3, Colo205) (human), sequence (Q13443 29-819): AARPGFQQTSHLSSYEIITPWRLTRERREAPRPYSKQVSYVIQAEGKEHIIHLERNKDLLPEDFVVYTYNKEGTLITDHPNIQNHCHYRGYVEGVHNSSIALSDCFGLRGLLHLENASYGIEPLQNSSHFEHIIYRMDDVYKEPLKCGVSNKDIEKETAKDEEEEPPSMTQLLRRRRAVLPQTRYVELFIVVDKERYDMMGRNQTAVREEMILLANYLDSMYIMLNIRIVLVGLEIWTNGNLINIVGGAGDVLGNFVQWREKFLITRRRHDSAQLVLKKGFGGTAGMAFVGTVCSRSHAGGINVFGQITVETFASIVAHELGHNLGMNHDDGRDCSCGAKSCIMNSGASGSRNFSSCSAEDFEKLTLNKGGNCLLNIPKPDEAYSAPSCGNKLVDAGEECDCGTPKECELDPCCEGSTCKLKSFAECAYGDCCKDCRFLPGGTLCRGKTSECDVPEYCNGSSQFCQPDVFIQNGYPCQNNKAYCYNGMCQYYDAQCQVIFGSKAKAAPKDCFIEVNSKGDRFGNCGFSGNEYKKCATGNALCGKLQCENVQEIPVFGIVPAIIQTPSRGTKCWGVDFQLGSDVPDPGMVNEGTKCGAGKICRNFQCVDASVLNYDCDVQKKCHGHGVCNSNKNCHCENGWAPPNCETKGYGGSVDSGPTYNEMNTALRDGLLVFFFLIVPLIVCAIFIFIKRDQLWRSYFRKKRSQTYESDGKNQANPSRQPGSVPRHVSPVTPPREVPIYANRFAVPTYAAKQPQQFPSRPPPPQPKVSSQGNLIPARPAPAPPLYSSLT

Mean fluorescence intensity (MFI) [1]: 389
Mean fluorescence intensity [2]: 269
Mean fluorescence intensity (MFI) [3]: 690
Mean fluorescence intensity (MFI) [4]: 386
Mean fluorescence intensity [5]: 368
Mean fluorescence intensity [6]: 229
Mean fluorescence intensity (MFI) [7]: 364
Mean fluorescence intensity [8]: 209
Mean fluorescence intensity (MFI) [9]: 361
Mean fluorescence intensity (MFI) [10]: 365
Mean fluorescence intensity (MFI) [11]: 349
Mean fluorescence intensity (MFI) [12]: 371
Mean fluorescence intensity (MFI) [13]: 377
Mean fluorescence intensity (MFI) [14]: 363
Mean fluorescence intensity (MFI) [15]: 360
Mean fluorescence intensity (MFI) [16]: 361
Mean fluorescence intensity [17]: 220
Mean fluorescence intensity [18]: 254
Mean fluorescence intensity [19]: 213
Mean fluorescence intensity [20]: 202
Mean fluorescence intensity [21]: 208
Mean fluorescence intensity [22]: 212
Mean fluorescence intensity [23]: 203
Molecule: anti-HIV human IgG antibody (iso-IgG1, produced by WuXi AppTec)

IC50 (nM) of proliferation inhibition, Calu-3 cells, CellTiter-Glo, 6 days [24]: 3.83 nM
IC50 (nM) of proliferation inhibition, Colo205 cells, CellTiter-Glo, 6 days [24]: 29.8 nM
IC50 (nM) of proliferation inhibition, LS174T cells, CellTiter-Glo, 6 days [24]: 8.97 nM
Mean fluorescence intensity [25]: 2130
Mean fluorescence intensity [26]: 1130
Mean fluorescence intensity [27]: 2160
Mean fluorescence intensity [28]: 2400
Mean fluorescence intensity [29]: 223
Mean fluorescence intensity [30]: 219
Mean fluorescence intensity [31]: 268
Mean fluorescence intensity [32]: 447
Mean fluorescence intensity [33]: 954
Mean fluorescence intensity [34]: 1960
Mean fluorescence intensity [35]: 2380
B1: antibody-drug conjugate Ab16-X2 (antibody, human IgG1, kappa, V domains shown)
VH: QVQLQQPGTEVVKPGASVKLSCKASGFTFPLYWMHWVRQRPGRGLEWIGRIIPIFGHTKYNEKFKNKATLTADESSSTAYMELRSLTSDDSAVYYCARGGYYYYPREGFLDYWGQGTSVTVSS
VL: DIVMTQSPASLSVSPGERASISCRSSQSVDYSGDSYMNWYQQKPGQSPRLLIYAASDRESGVPDRFSGSGSGTDFTLKISRVEEEDAGTYYCQQSREDPFTFGQGTKVDIKR
modifications: linker-payload X2 (camptothecin type) conjugated after reduction with tris(2-carboxyethyl)phosphine; DAR p = 7.9; sites not given

IC50 (nM) of proliferation inhibition, Calu-3 cells, CellTiter-Glo, 6 days [24]: 8.6 nM
Mean fluorescence intensity (MFI) [36]: 16600
Mean fluorescence intensity (MFI) [37]: 17400
Mean fluorescence intensity (MFI) [38]: 3290
Mean fluorescence intensity (MFI) [39]: 2960
Mean fluorescence intensity (MFI) [40]: 370
Mean fluorescence intensity (MFI) [41]: 376
Mean fluorescence intensity (MFI) [42]: 396
Mean fluorescence intensity (MFI) [43]: 451
Mean fluorescence intensity (MFI) [44]: 623
Mean fluorescence intensity (MFI) [45]: 1090
Mean fluorescence intensity (MFI) [46]: 1790
Mean fluorescence intensity (MFI) [47]: 1780
B2: antibody-drug conjugate Ab16-X1 (antibody, human IgG1, kappa, V domains shown)
VH: QVQLQQPGTEVVKPGASVKLSCKASGFTFPLYWMHWVRQRPGRGLEWIGRIIPIFGHTKYNEKFKNKATLTADESSSTAYMELRSLTSDDSAVYYCARGGYYYYPREGFLDYWGQGTSVTVSS
VL: DIVMTQSPASLSVSPGERASISCRSSQSVDYSGDSYMNWYQQKPGQSPRLLIYAASDRESGVPDRFSGSGSGTDFTLKISRVEEEDAGTYYCQQSREDPFTFGQGTKVDIKR
modifications: linker-payload X1 (camptothecin type) conjugated after reduction with tris(2-carboxyethyl)phosphine; DAR p = 7.8; sites not given
